The target of this test is soluble αVβ3 headpiece (human) (UniProt P06756). As to the kind of experiment: fluorescence polarisation. On the technique in general: In fluorescence polarisation assays a small probe gives low polarisation when free and higher when bound to something large.

In turn, “nonapeptide containing RGD from pro-TGF-β3” returned a fold-lower affinity than for αVβ6 of 1000 fold.

The values above are taken from paper PMC4717663.
